# Experimental data published in PMC4688034 (Cell Reports, 2015).
# pKd: −log10 of the molar value.
# Assays:
# 53BP1 BRCT2 domain = 53BP1 BRCT2 domain (UniProt Q12888); assay: fluorescence polarization titration; conditions: reference: pS139 peptide, untreated; sites S139
# [1] = target: fluorescein-…pSQEY (γH2AX phosphopeptide) (human); assay: fluorescence polarisation
# γH2AX foci in HeLa cells = assay: γH2AX focus formation after irradiation; type: cell-based; conditions: 10 μM inhibitor, 1 hr prior to 3 Gy IR, fixed 30 min later
molecule,measurement,setting,value
"H2AX (γH2AX when phosphorylated on Ser139) C-terminal 13 residues, 130-142 (from UniProt P16104) λ-phosphatase treated peptide",KD,53BP1 BRCT2 domain,lost; reference 1.4 ± 0.15
His6-SUMO-53BP1-BRCT2 (domain or fragment),pKd,[1],5.85
same,stoichiometry N,His6-SUMO-53BP1-BRCT2,2
O=c1cc(-c2cccc3c2Sc2ccccc2S3)oc(N2CCOCC2)c1 [KU55933],γH2AX focus formation on irradiation,γH2AX foci in HeLa cells,substantially diminished
